Results taken from PMC6795519.

Biological target: PIP3-dependent Rac exchanger 1 (P-Rex1), residues 38 to 1659 (human) (UniProt Q8TCU6)
UniProt Q8TCU6, sequence (Q8TCU6 38-1659): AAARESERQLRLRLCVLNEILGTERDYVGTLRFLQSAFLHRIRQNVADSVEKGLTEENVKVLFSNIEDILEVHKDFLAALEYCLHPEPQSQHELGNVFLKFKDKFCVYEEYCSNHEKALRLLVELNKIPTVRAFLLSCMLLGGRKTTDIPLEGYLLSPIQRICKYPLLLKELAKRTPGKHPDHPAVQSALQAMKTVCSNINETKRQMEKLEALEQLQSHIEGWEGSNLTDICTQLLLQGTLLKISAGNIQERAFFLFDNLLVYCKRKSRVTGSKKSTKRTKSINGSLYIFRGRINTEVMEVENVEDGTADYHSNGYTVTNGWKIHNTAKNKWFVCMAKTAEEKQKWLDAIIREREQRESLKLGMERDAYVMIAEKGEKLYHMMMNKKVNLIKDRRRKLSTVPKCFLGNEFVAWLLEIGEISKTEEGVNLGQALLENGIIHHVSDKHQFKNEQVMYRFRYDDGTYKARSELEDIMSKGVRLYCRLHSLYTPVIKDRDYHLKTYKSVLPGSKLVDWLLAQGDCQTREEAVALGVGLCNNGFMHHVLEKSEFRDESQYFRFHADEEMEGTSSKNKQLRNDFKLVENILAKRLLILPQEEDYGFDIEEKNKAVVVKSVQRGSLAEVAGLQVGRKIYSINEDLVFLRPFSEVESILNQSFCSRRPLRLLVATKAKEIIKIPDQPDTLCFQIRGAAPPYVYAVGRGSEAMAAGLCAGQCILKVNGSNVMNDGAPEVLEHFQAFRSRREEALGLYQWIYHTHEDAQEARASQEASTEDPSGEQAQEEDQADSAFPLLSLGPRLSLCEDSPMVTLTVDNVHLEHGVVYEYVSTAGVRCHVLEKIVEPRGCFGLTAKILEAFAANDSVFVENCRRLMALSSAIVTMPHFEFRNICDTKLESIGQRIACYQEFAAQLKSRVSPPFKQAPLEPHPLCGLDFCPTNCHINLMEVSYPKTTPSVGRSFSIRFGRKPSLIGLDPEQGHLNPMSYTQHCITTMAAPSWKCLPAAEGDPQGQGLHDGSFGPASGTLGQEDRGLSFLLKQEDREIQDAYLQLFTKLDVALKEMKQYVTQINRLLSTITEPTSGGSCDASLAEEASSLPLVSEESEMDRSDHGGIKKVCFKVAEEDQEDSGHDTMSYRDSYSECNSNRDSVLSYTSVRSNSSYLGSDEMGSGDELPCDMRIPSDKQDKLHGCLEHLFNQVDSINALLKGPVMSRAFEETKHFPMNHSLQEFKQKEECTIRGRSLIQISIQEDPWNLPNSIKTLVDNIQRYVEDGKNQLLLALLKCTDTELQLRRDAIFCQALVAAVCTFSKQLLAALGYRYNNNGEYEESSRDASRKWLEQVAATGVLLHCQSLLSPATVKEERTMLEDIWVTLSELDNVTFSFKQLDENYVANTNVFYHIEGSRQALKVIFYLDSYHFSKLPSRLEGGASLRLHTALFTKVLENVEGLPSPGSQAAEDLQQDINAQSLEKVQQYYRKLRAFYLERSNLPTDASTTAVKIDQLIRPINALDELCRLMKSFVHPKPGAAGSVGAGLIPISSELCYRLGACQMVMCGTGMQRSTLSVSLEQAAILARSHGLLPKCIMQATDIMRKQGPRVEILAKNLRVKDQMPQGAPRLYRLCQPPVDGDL

liposome-based GEF assay, Gβγ dose-response (0.5 μM PIP3): EC50 of activation of P-Rex1 against WT Gβγ; lower efficacy than WT: 10 fold
Substance: Geranylgeranylated human Gβ1γ2 with Gβ W332A (from UniProt P62873 1-340; P59768 1-71) (complex)
